Two molecules from patent US11091749B2, “Deimmunized lysostaphin and methods of use” (TRUSTEES OF DARTMOUTH COLLEGE, priority 2014, dated 2021) can be followed below.

Data set [1] deals with MRSA strain USA400. The experiment in a line: In vitro inhibitory activity (MIC). It counts as cell-based, Staphylococcus aureus. From the text: F11, P12 and F13 were screened for in vitro inhibitory activity against MRSA strain USA400 (FIG. 7).
In data set [2] the test system is MRSA strain USA400. Put plainly: In vivo efficacy of F11, intraperitoneal MRSA challenge. Further details: species or system C57BL/6 mice. Conditions: 100 μg single bolus i.v. 1 h after 2×10^8 MRSA i.p. The method, then: Mice were challenged with an intraperitoneal injection of 2×10^8 MRSA strain USA400, and 1 hour later the mice were treated with 100 μg wild-type LST, F11 or PBS. The percent survival is shown.
The in vivo efficacy of the F11 variant was further analyzed in C57BL/6 mice. Mice were challenged with an intraperitoneal injection of 2×10^8 MRSA strain USA400, and 1 hour later the mice were treated with 100 μg wild-type LST, F11 or PBS, administered as a single bolus intravenous injection. The survival rate for both protein treatments was 1/3. The 100 μg dosage was selected because wild-type LST is known to be only partially efficacious at this dose.

The nature of data set [3]: Immunogenicity of F13, antibody titers by ELISA (CFA). The following applies: 100 μg s.c. in CFA, fourteen days. Type of data set: in vivo, DR4 HLA transgenic mice. The method, then:
(§1) The immunogenicity of the F13 variant was compared to wild-type LST in DR4 HLA transgenic mice, i.e., mice bearing partially humanized immune systems. 100 μg of wild-type LST or variant F13 were mixed with complete Freund's adjuvant and injected subcutaneously into DR4 mice. Fourteen days later, antibody titers were measured by ELISA. Variant F13 yielded more than 200-fold lower antibody titers compared to wild-type LST. To assess the impact of antibody titers on antibacterial efficacy, the mice were challenged with an intraperitoneal injection of 2×10^8 MRSA strain USA400, and 1 hour later the mice were treated with 500 μg wild-type LST, variant F13, or PBS, administered as a single bolus intravenous injection. Both mice receiving PBS sham treatments died as did both mice treated with wild-type LST. In contrast, both mice treated with variant F13 survived. Thus, the reduced immunogenicity of F13 conferred enhanced therapeutic efficacy in vivo.
(ELISA stands for enzyme-linked immunosorbent assay.)

The test system of data set [4] is MRSA strain USA400. The experiment in a line: Efficacy of F13 in immunized mice, MRSA challenge. Type of data set: in vivo, DR4 HLA transgenic mice. The following applies: 500 μg i.v. 1 h after 2×10^8 MRSA i.p. The method, then:
as §1

B1: F11: variant combining cell wall binding domain mutations with Flex 9 (or derivative) catalytic domain (Table 22) (protein)
chain: AATHEHSAQWLGNYKKGYGYGPYPLGINGGMHYGVDFFMNEGTPVKAISSGKIVEAGWSNYGGGNQIGLIENDGVHRQWYMHMSKYNVKVGDYVEAGQQIGWSGSTGYSTAPHLHFQRMVGDFGNPTAQDPMPFLKSAGYGKAGGTVTPTPNTGWKTNKHGTLYKSESGSFTPNTDIITRTTGPFTSMPQSGVLKAGQTIHYDEVMKQDGHVWVGYTGNSGQRIYLPVRTWQKSTNTLGVLWGTIK
In the case of B1, in data set [1], the “MIC activity relative to wild-type LST” value stood at 12.5%. Besides, the survival rate in data set [2] is 1/3.

B2: F13: variant combining cell wall binding domain mutations with Flex 9 (or derivative) catalytic domain (Table 22) (protein)
chain: AATHEHSAQWLGNYKKGYGYGPYPLGINGGMHYGVDFFMNEGTPVKAISSGKIVEAGWSNYGGGNQIGLIENDGVHRQWYMHMSKYNVKVGDYVEAGQQIGWSGSTGYSTAPHLHFQRMVGDFGNPTAQDPMPFLKSAGYGKAGGTVTPTPNTGWKTNKHGTLYKNESGSFTPNTDIITRTTGPFTSMPQSGVLKAGQTIHYDEVMKQDGHVWVGYTGNSGQRIYLPVRTWQKSTDTLGVLWGTIK
For the molecule B2, in data set [1], the “MIC activity relative to wild-type LST” value is given as 12.5%. In data set [1] (50° C. for 1 hour prior to assay), the “retained original MIC activity after heating” value is reported as 25%. In addition, in data set [3], the “fold lower antibody titers compared to wild-type LST” value is “more than 200 fold”. Also, the survival result in data set [4] was “survived”.
